Results reported in patent publication US20200123221A1 (published 2020).
One block for each binder: values may come before it.

Experiments:
[1] = target: T1, PRAME (PRAME-004) peptide on HLA-A*02:01 (human); assay: IFN-gamma release; RNA-electroporated CD8+ T cells; T2 cells loaded with 10 µM to 10 pM peptide (FIG. 18); full-length, on cells
T1 peptide: SLLQHLIGL

[2] = target: T1, PRAME (PRAME-004) peptide on HLA-A*02:01; assay: multimer staining
[3] = target: T1, PRAME (PRAME-004) peptide on HLA-A*02:01; assay: IFN-gamma release; RNA-electroporated CD8+ T cells; T2 cells loaded with 10 µM to 10 pM peptide (FIG. 17); full-length, on cells

- EC50 of peptide [1]: 1.83 nM
B1: R17P1D7 (TCR, V domains shown)
Valpha: AQTVTQSQPEMSVQEAETVTLSCTYDTSESDYYLFWYKQPPSRQMILVIRQEAYKQQNATENRFSVNFQKAAKSFSLKISDSQLGDAAMYFCAYRWAQGGSEKLVFGKGTKLTVNP
Vbeta: EADIYQTPRYLVIGTGKKITLECSQTMGHDKMYWYQQDPGMELHLIHYSYGVNSTEKGDLSSESTVSRIRTEHFPLTLESARPSHTSQYLCATELWSSGGTGELFFGEGSRLTVL

- binding result [2]: recognises
B2: R17P1A9 (TCR, V domains shown)
Valpha: QKEVEQNSGPLSVPEGAIASLNCTYSDRGSQSFFWYRQYSGKSPELIMSIYSNGDKEDGRFTAQLNKASQYVSLLIRDSQPSDSATYLCAVLNQAGTALIFGKGTTLSVSS
Vbeta: DSGVTQTPKHLITATGQRVTLRCSPRSGDLSVYWYQQSLDQGLQFLIQYYNGEERAKGNILERFSAQQFPDLHSELNLSSLELGDSALYFCASSAETGPWLGNEQFFGPGTRLTVL

- EC50 of peptide [3]: ~1000 nM
B3: R16P1E8 (TCR, V domains shown)
Valpha: QKEVEQDPGPLSVPEGAIVSLNCTYSNSAFQYFMWYRQYSRKGPELLMYTYSSGNKEDGRFTAQVDKSSKYISLFIRDSQPSDSATYLCAMSEAAGNKLTFGGGTRVLVKP
Vbeta: EAGVAQSPRYKIIEKRQSVAFWCNPISGHATLYWYQQILGQGPKLLIQFQNNGVVDDSQLPKDRFSAERLKGVDSTLKIQPAKLEDSAVYLCASSYTNQGEAFFGQGTRLTVV
